In test [1] the target is rat collagen (acid soluble, type I, rat tail, Upstate 08-115) (rat) (UniProt P02454). Briefly: dried collagen assay, 5 uM each.
The target in test [2] is human collagen type I (acid soluble, extracted from placenta, Sigma C7774) (human) (UniProt P02452). The experiment in a line: dried collagen assay, 5 uM each.

For 51 molecules, Rat binding and Human binding results are on record in patent US20080058636A1, “METHODS OF MYOCARDIAL IMAGING” (Epix Pharmaceuticals, Inc., priority 2005, published 2008).

Bridge positions count the residues as written; N and C are the ends. Square brackets hold non-standard residues; d marks the D form. Ends that are not written are not given here. Cha = N[C@@H](CC1CCCCC1)C(=O)O

human collagen type I (acid soluble, extracted from placenta, Sigma C7774) (human), sequence (P02452 162-1218 limits assumed, chain 1 of 2): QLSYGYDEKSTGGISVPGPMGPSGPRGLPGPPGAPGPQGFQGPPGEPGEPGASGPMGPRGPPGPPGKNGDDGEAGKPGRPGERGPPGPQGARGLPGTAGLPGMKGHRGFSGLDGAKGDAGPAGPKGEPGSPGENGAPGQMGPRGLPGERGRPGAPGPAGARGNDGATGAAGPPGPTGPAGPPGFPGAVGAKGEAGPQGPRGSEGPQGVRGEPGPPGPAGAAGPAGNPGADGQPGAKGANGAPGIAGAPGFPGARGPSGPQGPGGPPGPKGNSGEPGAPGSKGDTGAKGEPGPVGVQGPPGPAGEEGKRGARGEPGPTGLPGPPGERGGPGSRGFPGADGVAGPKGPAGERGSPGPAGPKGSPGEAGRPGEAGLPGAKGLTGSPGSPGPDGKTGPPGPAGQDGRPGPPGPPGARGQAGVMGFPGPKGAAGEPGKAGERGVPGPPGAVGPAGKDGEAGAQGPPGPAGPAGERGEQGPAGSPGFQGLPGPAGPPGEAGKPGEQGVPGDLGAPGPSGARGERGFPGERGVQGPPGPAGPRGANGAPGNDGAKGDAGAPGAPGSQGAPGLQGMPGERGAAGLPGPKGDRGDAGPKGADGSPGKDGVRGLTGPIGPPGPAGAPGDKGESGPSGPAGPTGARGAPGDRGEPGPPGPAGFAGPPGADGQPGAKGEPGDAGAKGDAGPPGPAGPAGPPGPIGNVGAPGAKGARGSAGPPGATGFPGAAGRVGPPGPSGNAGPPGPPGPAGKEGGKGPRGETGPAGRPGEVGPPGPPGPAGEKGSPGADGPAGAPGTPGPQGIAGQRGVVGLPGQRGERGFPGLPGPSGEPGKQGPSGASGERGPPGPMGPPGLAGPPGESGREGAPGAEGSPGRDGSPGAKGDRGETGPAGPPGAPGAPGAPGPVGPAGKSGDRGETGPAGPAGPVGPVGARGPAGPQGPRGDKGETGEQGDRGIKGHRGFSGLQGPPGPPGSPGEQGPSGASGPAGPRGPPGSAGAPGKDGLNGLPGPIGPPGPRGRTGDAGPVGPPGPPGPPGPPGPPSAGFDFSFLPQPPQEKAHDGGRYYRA
human collagen type I (acid soluble, extracted from placenta, Sigma C7774) (human), sequence (P08123 80-1119 limits assumed, chain 2 of 2, further chain): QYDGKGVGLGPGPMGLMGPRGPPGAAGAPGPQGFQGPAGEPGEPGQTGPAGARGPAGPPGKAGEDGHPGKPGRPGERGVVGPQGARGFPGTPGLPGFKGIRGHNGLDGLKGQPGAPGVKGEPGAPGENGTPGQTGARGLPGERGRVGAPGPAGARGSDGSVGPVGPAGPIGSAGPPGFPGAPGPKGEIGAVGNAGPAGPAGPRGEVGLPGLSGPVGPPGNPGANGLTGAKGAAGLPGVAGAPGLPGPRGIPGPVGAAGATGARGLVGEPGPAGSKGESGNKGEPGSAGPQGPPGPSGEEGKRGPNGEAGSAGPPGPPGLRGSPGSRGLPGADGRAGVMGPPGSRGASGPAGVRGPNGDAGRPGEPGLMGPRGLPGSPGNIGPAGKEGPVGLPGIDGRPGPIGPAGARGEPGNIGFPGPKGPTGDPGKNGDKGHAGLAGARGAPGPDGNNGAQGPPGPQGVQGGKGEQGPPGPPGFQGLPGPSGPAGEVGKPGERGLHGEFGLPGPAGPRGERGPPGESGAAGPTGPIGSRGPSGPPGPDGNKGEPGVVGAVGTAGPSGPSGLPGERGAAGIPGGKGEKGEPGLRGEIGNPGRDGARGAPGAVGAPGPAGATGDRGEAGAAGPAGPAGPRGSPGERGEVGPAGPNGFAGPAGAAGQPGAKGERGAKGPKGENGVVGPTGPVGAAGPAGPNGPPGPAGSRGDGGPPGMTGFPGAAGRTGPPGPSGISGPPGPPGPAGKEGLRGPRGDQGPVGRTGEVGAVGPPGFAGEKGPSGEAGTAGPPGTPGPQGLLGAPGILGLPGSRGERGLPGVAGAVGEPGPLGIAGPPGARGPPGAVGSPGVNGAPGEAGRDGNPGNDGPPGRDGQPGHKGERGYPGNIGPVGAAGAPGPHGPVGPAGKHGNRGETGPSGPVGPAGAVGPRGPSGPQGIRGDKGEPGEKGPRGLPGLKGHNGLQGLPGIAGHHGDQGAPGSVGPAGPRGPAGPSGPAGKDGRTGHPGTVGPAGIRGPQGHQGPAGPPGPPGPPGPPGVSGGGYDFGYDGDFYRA
rat collagen (acid soluble, type I, rat tail, Upstate 08-115) (rat), sequence (P02454 152-1207, chain 1 of 2): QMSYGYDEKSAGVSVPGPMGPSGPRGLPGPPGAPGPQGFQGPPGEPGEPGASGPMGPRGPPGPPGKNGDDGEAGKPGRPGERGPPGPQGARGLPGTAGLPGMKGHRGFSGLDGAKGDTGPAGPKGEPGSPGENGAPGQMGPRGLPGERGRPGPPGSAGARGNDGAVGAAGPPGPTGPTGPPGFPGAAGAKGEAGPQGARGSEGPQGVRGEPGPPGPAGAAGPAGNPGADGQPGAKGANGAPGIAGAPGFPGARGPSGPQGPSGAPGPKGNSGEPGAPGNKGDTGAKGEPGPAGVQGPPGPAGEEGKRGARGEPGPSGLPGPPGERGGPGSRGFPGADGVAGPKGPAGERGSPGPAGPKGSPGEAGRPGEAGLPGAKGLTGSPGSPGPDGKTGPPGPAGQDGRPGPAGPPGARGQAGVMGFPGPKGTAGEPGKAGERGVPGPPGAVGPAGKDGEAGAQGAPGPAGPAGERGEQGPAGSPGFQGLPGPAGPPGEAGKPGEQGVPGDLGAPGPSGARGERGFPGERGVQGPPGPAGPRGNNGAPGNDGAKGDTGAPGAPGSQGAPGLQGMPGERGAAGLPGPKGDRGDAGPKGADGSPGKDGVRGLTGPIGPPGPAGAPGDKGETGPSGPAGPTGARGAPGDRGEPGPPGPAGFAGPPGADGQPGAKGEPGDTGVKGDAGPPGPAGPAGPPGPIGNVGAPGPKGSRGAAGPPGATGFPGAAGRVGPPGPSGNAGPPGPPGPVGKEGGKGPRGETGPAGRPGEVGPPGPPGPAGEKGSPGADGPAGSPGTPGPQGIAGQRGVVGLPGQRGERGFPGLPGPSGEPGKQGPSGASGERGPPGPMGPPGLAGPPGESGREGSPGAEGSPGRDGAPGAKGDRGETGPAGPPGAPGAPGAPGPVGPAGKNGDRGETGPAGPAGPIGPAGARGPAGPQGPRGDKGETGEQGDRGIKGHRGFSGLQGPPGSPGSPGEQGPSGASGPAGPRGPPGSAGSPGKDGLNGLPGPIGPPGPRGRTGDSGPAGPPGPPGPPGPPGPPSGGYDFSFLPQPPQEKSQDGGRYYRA
rat collagen (acid soluble, type I, rat tail, Upstate 08-115) (rat), sequence (P02466 86-1125, chain 2 of 2, further chain): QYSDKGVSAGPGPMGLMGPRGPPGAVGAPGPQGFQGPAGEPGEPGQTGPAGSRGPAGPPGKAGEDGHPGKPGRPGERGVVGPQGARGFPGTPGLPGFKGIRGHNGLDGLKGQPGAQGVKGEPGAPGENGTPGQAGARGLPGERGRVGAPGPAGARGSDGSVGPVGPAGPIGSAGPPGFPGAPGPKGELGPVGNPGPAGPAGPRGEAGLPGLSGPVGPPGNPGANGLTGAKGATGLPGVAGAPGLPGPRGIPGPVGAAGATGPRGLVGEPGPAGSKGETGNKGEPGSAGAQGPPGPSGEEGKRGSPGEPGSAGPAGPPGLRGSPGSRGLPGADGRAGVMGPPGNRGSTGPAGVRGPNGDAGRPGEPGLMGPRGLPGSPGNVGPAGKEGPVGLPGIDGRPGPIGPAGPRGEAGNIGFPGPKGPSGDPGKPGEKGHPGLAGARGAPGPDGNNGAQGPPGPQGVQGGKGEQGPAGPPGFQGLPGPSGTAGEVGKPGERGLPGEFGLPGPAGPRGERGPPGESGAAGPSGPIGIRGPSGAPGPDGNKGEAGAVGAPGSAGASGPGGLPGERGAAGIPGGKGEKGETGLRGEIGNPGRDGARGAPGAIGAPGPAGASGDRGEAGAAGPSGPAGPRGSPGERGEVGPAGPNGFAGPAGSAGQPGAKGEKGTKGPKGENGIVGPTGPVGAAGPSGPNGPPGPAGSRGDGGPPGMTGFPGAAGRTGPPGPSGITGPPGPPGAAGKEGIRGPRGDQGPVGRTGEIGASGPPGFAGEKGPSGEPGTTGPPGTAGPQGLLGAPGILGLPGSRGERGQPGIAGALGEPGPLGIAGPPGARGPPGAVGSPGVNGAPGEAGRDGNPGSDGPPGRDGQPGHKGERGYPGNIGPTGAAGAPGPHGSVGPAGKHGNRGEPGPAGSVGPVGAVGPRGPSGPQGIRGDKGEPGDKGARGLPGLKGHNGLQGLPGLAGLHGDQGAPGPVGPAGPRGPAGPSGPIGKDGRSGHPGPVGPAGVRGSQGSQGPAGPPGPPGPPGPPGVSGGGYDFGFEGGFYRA

Molecule GQWHCTTRFPHHYCFYG [Compound ID 931] came in with a Rat binding in test [1] of 83%. For the same molecule, in test [2], the Human binding amounted to 70%.
Regarding GQWHCTTLFPHHYCVYG [Compound ID 928], the Rat binding in test [1] amounted to 80%. The Human binding in test [2] worked out at 73%.
On the same counts, the results for GQWHCTTIFPHHYCLYG [Compound ID 917] are 0% and 12%.
The like results for GKWHCTTYFPHYYCLYG [Compound ID 947] were, in that order, 57% and 64%.
On the same counts, the results for GAWHCTTYFPHHYCLYG [Compound ID 915] are 0% and 15%.
Molecule GKWHCTTYFPTHYCLYG [Compound ID 962] gave a Rat binding in test [1] of 10%. Besides, the Human binding in test [2] was 20%.
On the same counts, the results for GQWHCTT[Cha]FPHHYCLYG (disulfide 5-14 (inferred)) [Compound ID 918] are 0% and 19%.
GQWHCTTLFPNHYCLYG [Compound ID 923]: the Rat binding in test [1] was determined as 10%. The Human binding in test [2] came out at 28%.
The like results for GQWKCTTRFPHHYCLYG [Compound ID 956] were, in that order, 15% and 39%.
With GQWHCTTRFAHHYCLYG [Compound ID 938], the Rat binding in test [1] was 13%. This molecule came in with a Human binding in test [2] of 16%.
For the molecule GFKWHCTTYFPHHYCLYG [Compound ID 983], the Rat binding in test [1] was 59%. Moreover, in test [2], the Human binding was 58%.
Regarding GKWHCTTYFPHHVCLYG [Compound ID 965], the Rat binding in test [1] is 11%. The same molecule registered a Human binding in test [2] of 26%.
On the same counts, the results for GKWHCYTYFPHHYCVYYK [Compound ID 975] are 64% and 70%.
For the molecule GKWHCYTYFPHHYCVYGK [Compound ID 974], the Rat binding in test [1] stood at 69%. Moreover, the Human binding in test [2] worked out at 71%.
Molecule GQWHCTDRFPHHYCLYG [Compound ID 936] gave a Rat binding in test [1] of 5%. For the same molecule, the Human binding in test [2] turned out to be 9%.
On the same counts, the results for GQWHCTTRFPHHRCLYG [Compound ID 902] are 2% and 7%.
On the same counts, the results for GQWHCTSRFPHHYCLYG [Compound ID 898] are 3% and 5%.
On to GQWHCTTRFPHHTCLYG [Compound ID 905], for which the Rat binding in test [1] amounted to 2%. This molecule showed a Human binding in test [2] of 6%.
PPWHCTTLFPHHYCLYG [Compound ID 912]: the Rat binding in test [1] was 0%. Besides, in test [2], the Human binding was found to be 20%.
The molecule GKWHCYTKFPHHYCVYG [Compound ID 978] gave a Rat binding in test [1] of 66%. Also, the Human binding in test [2] came to 64%.
As for GKWHCYTYFPHHYCVYY [Compound ID 945], the Rat binding in test [1] was determined as 82%. The same molecule came in with a Human binding in test [2] of 83%.
GKWHCYTYFPYHYCVYG [Compound ID 963]: the Rat binding in test [1] came out at 91%. The molecule further returned a Human binding in test [2] of 82%.
On the same counts, the results for GVKWHCTTYFPHHYCLYG [Compound ID 982] are 47% and 40%.
Molecule GAWHCTTLFPHHYCLYG [Compound ID 908] displayed a Rat binding in test [1] of 0%. This molecule displayed a Human binding in test [2] of 20%.
In turn, GQWHCTYLFPHHYCLYG [Compound ID 921] displayed a Rat binding in test [1] of 35%. Besides, the Human binding in test [2] stood at 68%.
Consider AWHCTTLFPHHYCLYG [Compound ID 909], for which the Rat binding in test [1] stood at 0%. This molecule also had a Human binding in test [2] of 14%.
GQWHCTTLFPHNYCLYG [Compound ID 924] had a Rat binding in test [1] of 1%. For the same molecule, the Human binding in test [2] came to 24%.
On to GKWHCTTKFPHHYCLYY [Compound ID 980], for which the Rat binding in test [1] came out at 80%. This molecule returned a Human binding in test [2] of 85%.
On the same counts, the results for GQWHCTRRFPHHYCLYG [Compound ID 900] are 1% and 4%.
The like results for GKWHCYTKFPHHYCVYY [Compound ID 979] were, in that order, 86% and 87%.
On to GQWHCTTRFPKHYCLYG [Compound ID 958], for which the Rat binding in test [1] was determined as 33%. In addition, the Human binding in test [2] worked out at 45%.
The like results for GKWHCTTYFPHWYCLYG [Compound ID 948] were, in that order, 17% and 25%.
In test [1], GQWHCTYRFPHHYCLYG [Compound ID 899] yielded a Rat binding of 14%. This molecule also came in with a Human binding in test [2] of 20%.
Molecule GYKWHCTTYFPHHYCLYG [Compound ID 981] yielded a Rat binding in test [1] of 81%. The Human binding in test [2] was determined as 73%.
In turn, GKWHCTTYFPHHYCLYYK [Compound ID 976] came in with a Rat binding in test [1] of 57%. Further, the Human binding in test [2] was found to be 62%.
On the same counts, the results for GQWNCTTLFPHHYCLYG [Compound ID 922] are 58% and 68%.
In test [1], GKWHCTTYFPHHYCVYG [Compound ID 942] yielded a Rat binding of 67%. Moreover, the Human binding in test [2] turned out to be 78%.
In the case of GQWHCTKRFPHHYCLYG [Compound ID 940], in test [1], the Rat binding is 8%. Besides, the Human binding in test [2] worked out at 9%.
On the same counts, the results for GKWHCTTLFPHHVCLYG [Compound ID 966] are 8% and 14%.
For the molecule GKWHCTTYFPYHYCLYG [Compound ID 946], the Rat binding in test [1] turned out to be 68%. The molecule also yielded a Human binding in test [2] of 71%.
The like results for GKWHCYTYFPYHYCLYG [Compound ID 964] were, in that order, 86% and 88%.
The like results for AWHCTTRFPAHYCLYG [Compound ID 937] were, in that order, 14% and 11%.
The molecule GSWHCTTLFPHHYCLYG [Compound ID 911] showed a Rat binding in test [1] of 0%. Besides, in test [2], the Human binding amounted to 15%.
On the same counts, the results for GKWHCTTLFPHHYCLYG [Compound ID 930] are 42% and 31%.
On the same counts, the results for GQWHCKTRFPHHYCLYG [Compound ID 957] are 39% and 42%.
The like results for KKGQWHCTTYFPHHYCLYG [Compound ID 960] were, in that order, 34% and 30%.
GKWHCTTYFPHHYCLYY [Compound ID 949] gave a Rat binding in test [1] of 79%. Further, the Human binding in test [2] is 72%.
The like results for GKWHCTTYFPHHFCLYG [Compound ID 972] were, in that order, 0% and 3%.
On the same counts, the results for GQWHCTTLFPHHYCIYG [Compound ID 927] are 63% and 64%.
On the same counts, the results for GDWHCTTLFPHHYCLYG [Compound ID 910] are 0% and 13%.
As for GQWHCTTFFPHHYCLYG [Compound ID 929], in test [1], the Rat binding came to 34%. Also, the Human binding in test [2] is 27%.
